B1: LINE1-full (parent)
chain: UACGUAGGUGGUUUUCCCCUGAUAGUGCUAAGGGGGCCUGGAAGUUUGGACUGGGCAGAGCUCAACACAGCGUGGCAAAGUGGCUGUGGCUAGACUGCCUCUCUGGAUUCCUCGUCACUCAGCAGGGCAUCUCUGAGAGAAAUGCC

Variants of B1 are the subject of the data set. The experiment in a line: self-cleavage, relative activity (ratio to wild type); higher = more cleavage; in vitro, sequencing; the parent is a self-cleaving ribozyme.
As to A79G C146U, the self-cleavage amounted to 1.3.
The same measure for G80A A121G: 2.16; for A79U A141G: 1.71; for A78G A79G: 1.14.
The result for A79U A136G reads 1.96; that for A79U A136U, 2.6.
The result for G75C A138G reads 1.01.
Take A79G A142G: the self-cleavage was 1.12.
Turning to A78G C95U, the self-cleavage was 0.1.
The same measure for A78G A107U: 1.26.
The result for A78G A107G reads 1.26; that for A78G A138U, 1; that for A78U U112C, 1.91.
The result for A79G U96G reads 0.16; that for A79G A138U, 0.85.
Regarding A79G A138G, the self-cleavage worked out at 1.22.
The result for A77G G80A reads 2.17.
The result for A77G G80U reads 2.02; that for C76U A107U, 2.27; that for A78G A129C, 1.96.
The result for A78G A129G reads 1.65; that for A77U C146A, 1.23; that for A79G A117U, 1.06.
Regarding A79G A141G, the self-cleavage was 1.35.
The result for A78G A136U reads 1.79.
The result for A78G A136G reads 1.45; that for A79U A142G, 2.33; that for A77U A121U, 1.27.
The same measure for A77C A136G: 1.06; for A78U G89A: 0.07; for A78U G89C: 0.08.
On to C76U C113A, for which the self-cleavage turned out to be 2.15.
The same measure for A79U U85A: 0.07; for A79C U108C: 2.12.
The result for A77G U112C reads 2.18; that for A77G U112A, 2.32.
The same measure for A77U U85A: 0.07; for A78G U115A: 1.12.
In the case of A79G U143A, the self-cleavage was 1.52.
As for G75A U112A, the self-cleavage amounted to 0.91.
The same measure for G75A U81C: 0.67; for C76U U85C: 0.36; for A78U A140C: 2.32.
The result for A78U A140G reads 1.96; that for A78U U132C, 1.92.
The same measure for A77G U102C: 1.96; for A77C C116U: 1.04.
For the variant A77G U85C, the self-cleavage came out at 0.25.
The same measure for A77G U85A: 0.06.
The result for A77G U85G reads 0.2; that for A79G A136U, 0.91; that for A77U G114A, 1.65.
With A78C U91C, the self-cleavage was 1.24.
The same measure for A77G U143A: 1.85; for A77G U143G: 2.99; for A77G U143C: 2.2.
Take A78U U134A: the self-cleavage amounted to 2.08.
The same measure for A78U U134C: 2.05; for A79U A94G: 0.26.
The same measure for A79U A94U: 0.25.
The result for C76U U108C reads 2.53; that for A78U U85A, 0.11; that for A78G U112C, 1.24.
Consider A78G U112A, for which the self-cleavage amounted to 0.7.
In the case of A78C A141G, the self-cleavage was 1.74.
On to A79U U132A, for which the self-cleavage amounted to 1.83.
The same measure for A79U U132C: 2.24; for A79U A129G: 2.13.
Regarding A78U U108C, the self-cleavage came out at 2.87.
The result for A78G U85C reads 0.11; that for A78G U85G, 0.18.
The result for A79G G89A reads 0.03; that for A79G G89C, 0.05.
Consider A77U U119C, for which the self-cleavage came to 1.58.
The result for A78U U104G reads 0.55.
The same measure for A77C A78G: 1.63.
The result for A78G G122A reads 0.65.
For the variant G75C U109C, the self-cleavage came out at 0.62.
Consider A77U U96A, for which the self-cleavage turned out to be 0.06.
The same measure for A79U A121G: 1.58; for A78U U96C: 0.17.
Regarding A78U U100C, the self-cleavage was found to be 2.81.
In the case of A77U U108C, the self-cleavage was 1.57.
The same measure for A79G G88A: 0.03; for A77G G114A: 2.27.
The same measure for C76U C99U: 0.99; for A77G U132C: 2.73.
Take A78U A138U: the self-cleavage came to 2.15.
The same measure for A78U A138G: 2.06; for A78U C110U: 1.28; for A78U U81C: 1.6.
The result for A77G U109C reads 1.51.
The result for A77G U109A reads 1.75; that for A79G C98U, 0.45; that for A79G C98A, 0.2.
G75A U100A: the self-cleavage was 0.42.
The same measure for G75A U100C: 1.5.
A78G G86U: the self-cleavage is 0.08.
The same measure for A78G G86A: 0.05; for G75U U109C: 0.7.
The result for A78G A124U reads 1.45; that for C76U A129U, 1.57; that for A79G G144A, 1.5.
Regarding G75A G82U, the self-cleavage came out at 1.07.
The result for A78C U100C reads 2.41; that for A77G U87C, 0.42; that for A77G U87A, 0.09.
The same measure for A77G C99U: 1.01; for G75A G105U: 0.67; for A79G C99U: 0.38.
The same measure for A77U U100C: 1.58; for A77U U100A: 0.91.
In the case of A77G U134C, the self-cleavage turned out to be 2.54.
Take A78U U109A: the self-cleavage amounted to 1.84.
Consider A79U A138G, for which the self-cleavage is 1.76.
For the variant A77G C145U, the self-cleavage came out at 2.12.
The same measure for A77G C145A: 2.43.
The same measure for A77C G114A: 0.63; for C76U A140G: 2.36.
The same measure for C76U A140U: 2.07; for A79G U91C: 0.45; for A79G U119A: 1.06.
As to A78C A136G, the self-cleavage was found to be 2.92.
As for A77U A117U, the self-cleavage worked out at 1.21.
The result for A77U A117C reads 1.76.
The same measure for A77U A117G: 1.6.
The same measure for A77U A136C: 1.67; for A77U A136G: 1.19; for A78G U143C: 1.18.
Turning to A78G U143A, the self-cleavage is 1.11.
On to A78G A141U, for which the self-cleavage was 1.66.
The result for A78G A141G reads 1.38.
The result for C76U A142C reads 0.92; that for A78G A142G, 1.21.
The same measure for C76U U143C: 2.01; for A77G A92G: 0.2; for A77G A92U: 1.11.
As for A79G U130C, the self-cleavage turned out to be 1.45.
With A79G U130G, the self-cleavage came to 2.51.
On to A78C U96A, for which the self-cleavage stood at 0.14.
As to A77G U81A, the self-cleavage turned out to be 2.73.
The result for A77G U81C reads 2.1; that for A78G C145U, 1.28.
For A77C C128U, the self-cleavage worked out at 1.67.
The result for A79U U130C reads 2.63; that for A77U U134G, 1.47; that for A78G G106U, 0.66.
The result for A77G A129U reads 2.
The same measure for A78G U104A: 1.25; for G75A U87G: 0.18; for A77G U96G: 0.16.
Take A77G U96C: the self-cleavage worked out at 0.18.
The same measure for A79U U91A: 0.58; for A79G G139U: 1.19.
The same measure for A79U U87A: 0.05; for A79G A107U: 1.41; for A78G G105A: 1.8.
The same measure for A79G G83A: 1.03; for A79G C95U: 0.08; for A77G A138U: 2.56.
As to A78U A94U, the self-cleavage is 0.3.
For the variant A78U A94G, the self-cleavage amounted to 0.46.
The same measure for A78U U119A: 1.82; for A79G A129G: 1.62.
The same measure for A79C U87A: 0.18.
The same measure for A77U A129C: 1.28; for A77U A129G: 1.45.

The values are drawn from the RNAGym collection of RNA variant scans (doi:10.7554/elife.90254).
